From article PMC5476585

Biological target: 25-nucleosome array (human)

Fpr4 FKBP (280-392) (from UniProt Q06205 280-392) (domain or fragment)
magnesium-dependent self-association of 25-nucleosome arrays (0.25, 0.5 and 1 mM MgCl2), chromatin in the pellet fraction after centrifugation: > 90%
